From US20250084173A1 (4B TECHNOLOGIES SUZHOU, published 2025)

What was measured:
[1] = molecular target: T1, recombinant human TrkA ECD protein (human, UniProt P04629 33-423); assay: ELISA on recombinant TrkA ECD proteins (FIG. 1b)
T1 construct: extracellular domain; also called hTrkA-ECD-hFc; hTrkA; not shown: C-terminal human Fc tag (hFc)

[2] = molecular target: T2, recombinant mouse TrkA ECD protein (mouse, UniProt Q3UFB7 34-420); assay: ELISA on recombinant TrkA ECD proteins (FIG. 1b)
T2 construct: extracellular domain; also called mTrkA-ECD-hFc; murine TrkA; not shown: C-terminal human Fc tag (hFc)
T2 sequence (Q3UFB7 34-420): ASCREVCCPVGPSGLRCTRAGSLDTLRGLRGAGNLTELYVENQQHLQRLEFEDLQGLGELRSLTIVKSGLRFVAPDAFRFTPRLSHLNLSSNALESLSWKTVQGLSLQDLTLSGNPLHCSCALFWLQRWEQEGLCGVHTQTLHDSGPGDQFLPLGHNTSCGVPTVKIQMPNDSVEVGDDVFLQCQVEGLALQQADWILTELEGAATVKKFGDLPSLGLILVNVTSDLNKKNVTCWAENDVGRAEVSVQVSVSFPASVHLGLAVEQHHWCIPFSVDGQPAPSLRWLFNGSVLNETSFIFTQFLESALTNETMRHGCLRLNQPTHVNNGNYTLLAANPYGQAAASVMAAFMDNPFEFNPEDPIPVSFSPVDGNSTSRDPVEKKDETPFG

T1 sequence (P04629 33-423): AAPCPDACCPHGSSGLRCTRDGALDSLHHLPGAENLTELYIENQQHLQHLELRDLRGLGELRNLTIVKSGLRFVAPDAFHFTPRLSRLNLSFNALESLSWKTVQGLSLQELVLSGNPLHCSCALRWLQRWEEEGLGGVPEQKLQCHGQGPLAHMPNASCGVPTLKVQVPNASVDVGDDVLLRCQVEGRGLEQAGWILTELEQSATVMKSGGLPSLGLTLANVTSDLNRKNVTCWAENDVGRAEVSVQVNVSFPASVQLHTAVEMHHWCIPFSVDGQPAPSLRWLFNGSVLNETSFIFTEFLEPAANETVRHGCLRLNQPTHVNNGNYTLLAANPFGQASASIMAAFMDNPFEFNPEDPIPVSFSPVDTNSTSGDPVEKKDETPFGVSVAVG

binding result [1]: binds | binding result [2]: binds
B1: 27A6 (antibody, mouse IgG1, V domains shown)
VH: QVQLQQSGAELMEPGASVKISCKATGYTFSRYWIEWVQQRPGHGLEWIGEILPGSGTTNYNENFRGKATFTADTSSNTVYMQLISLTSEDSAVYYCARSYYGDFDAYWGQGTLVTVSA
VL: QAVVTQESALTTSPGETVTLTCRSSIGAVTTSNHANWVQEKPDHLFTGLIGGTNNRAPGVPARFSGSLIGDKAVLTITGAQTEDEAIYFCALWYSNHWVFGGGTKLTVLG
notes: also called TrkA antibody; TrkA antibody of the present application
